{
  "source": "paper PMC8897273",
  "about": "(Journal of molecular biology, 2022)",
  "binders": {"B1": {"name": "human eIF4G1 fragment (88–653) (domain or fragment, UniProt Q04637-1 88-653, looked up)", "chain": "MMIPSQISYPASQGAYYIPGQGRSTYVVPTQQYPVQPGAPGFYPGASPTEFGTYAGAYYPAQGVQQFPTGVAPTPVLMNQPPQIAPKRERKTIRIRDPNQGGKDITEEIMSGARTASTPTPPQTGGGLEPQANGETPQVAVIVRPDDRSQGAIIADRPGLPGPEHSPSESQPSSPSPTPSPSPVLEPGSEPNLAVLSIPGDTMTTIQMSVEESTPISRETGEPYRLSPEPTPLAEPILEVEVTLSKPVPESEFSSSPLQAPTPLASHTVEIHEPNGMVPSEDLEPEVESSPELAPPPACPSESPVPIAPTAQPEELLNGAPSPPAVDLSPVSEPEEQAKEVTASMAPPTIPSATPATAPSATSPAQEEEMEEEEEEEEGEAGEAGEAESEKGGEELLPPESTPIPANLSQNLEAAAATQVAVSVPKRRRKIKELNKKEAVGDLLDAFKEANPAVPEVENQPPAGSNPGPESEGSGVPPRPEEADETWDSKEDKIHNAENIQPGEQKYEYKSDQWKPLNLEEKKRYDREFLLGFQFIFASMQKPEGLPHISDVVLDKANKTPLRPLDT"}},
  "key": {"[1]": {"target": "human polyadenylate binding protein 1 (PABP1) (human, UniProt P11940 1-636)", "sequence (P11940 whole entry)": "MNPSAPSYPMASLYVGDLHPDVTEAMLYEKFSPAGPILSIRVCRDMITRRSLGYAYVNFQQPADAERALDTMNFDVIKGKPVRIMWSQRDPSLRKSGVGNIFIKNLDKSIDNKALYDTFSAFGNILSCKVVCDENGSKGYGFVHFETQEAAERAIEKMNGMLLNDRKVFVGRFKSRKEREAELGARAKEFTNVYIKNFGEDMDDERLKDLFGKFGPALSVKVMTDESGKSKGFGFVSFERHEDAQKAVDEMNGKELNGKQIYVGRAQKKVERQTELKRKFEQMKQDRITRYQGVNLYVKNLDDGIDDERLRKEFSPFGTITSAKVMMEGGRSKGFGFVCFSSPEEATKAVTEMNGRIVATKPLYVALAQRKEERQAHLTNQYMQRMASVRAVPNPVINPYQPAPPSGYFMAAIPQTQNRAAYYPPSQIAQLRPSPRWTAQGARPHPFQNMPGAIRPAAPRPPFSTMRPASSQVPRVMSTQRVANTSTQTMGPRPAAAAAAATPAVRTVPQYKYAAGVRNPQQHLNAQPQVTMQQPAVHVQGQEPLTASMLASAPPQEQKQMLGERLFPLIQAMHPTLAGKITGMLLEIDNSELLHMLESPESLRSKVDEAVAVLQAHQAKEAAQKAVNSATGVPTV", "experiment": "native gel or EMSA"}, "PABP1 [2]": {"target": "T1, PABP1 (Homo sapiens, UniProt P11940 1-636)", "T1 sequence (P11940 whole entry)": "as above", "experiment": "EMSA"}, "PABP1 [3]": {"target": "T1, PABP1", "experiment": "EMSA", "remark": "listed apart in the source"}},
  "note": "Read-outs that look alike come from different tables or passages of the source.",
  "data": [
    {"binder": "B1", "values": [
      {"measurement": "binding result", "setting": "[1]", "result": "binds"}
    ]},
    {"binder": "AAAAAAAAAAAAAAAAAA (ssRNA)", "note": "[Poly(A)18]", "values": [
      {"measurement": "binding result", "setting": "PABP1 [2]", "result": "binds"}
    ]},
    {"binder": "GCUAUCCAGAUUCUGAUU (ssRNA)", "note": "[ssCR1]", "values": [
      {"measurement": "binding result", "setting": "PABP1 [3]", "result": "no binding"}
    ]}
  ]
}
